From publication PMC4072508, “Genome-Wide Prediction and Validation of Peptides That Bind Human Prosurvival Bcl-2 Proteins” (PLoS Computational Biology, 2014) come the findings set out here.

Assay in all cases: peptide SPOT array, c-Myc-tagged receptor at 1 uM or 100 nM, anti-c-Myc-Cy3
Assay [1] has as its target T1, Bfl-1, Q16548.
T1 chain: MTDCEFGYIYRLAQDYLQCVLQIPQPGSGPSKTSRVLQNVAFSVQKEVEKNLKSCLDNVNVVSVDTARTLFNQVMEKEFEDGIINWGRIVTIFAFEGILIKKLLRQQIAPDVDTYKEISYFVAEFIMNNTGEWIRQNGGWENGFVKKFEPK

Assay [2] addresses T2, Mcl-1, Q07820.
T2 chain: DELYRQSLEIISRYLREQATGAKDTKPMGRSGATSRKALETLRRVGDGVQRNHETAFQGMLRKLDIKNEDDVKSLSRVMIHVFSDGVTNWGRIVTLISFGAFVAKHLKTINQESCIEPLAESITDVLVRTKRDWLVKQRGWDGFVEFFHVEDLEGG

The target of assay [3] is Bcl-xL, Q07817.
Bcl-xL, Q07817, sequence (Q07817 1-209): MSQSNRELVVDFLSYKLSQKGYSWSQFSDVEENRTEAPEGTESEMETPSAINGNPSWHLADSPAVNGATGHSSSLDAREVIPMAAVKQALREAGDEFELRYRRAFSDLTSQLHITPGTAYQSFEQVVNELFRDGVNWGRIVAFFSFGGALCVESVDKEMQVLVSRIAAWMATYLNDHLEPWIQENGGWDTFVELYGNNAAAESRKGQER

B1: XXXX (peptide)
chain: GTAVAYRGAHLRGRLRAVYNTFRAAP
Take B1: the SPOT signal as a fraction of Bim BH3's signal on the same receptor and array in assay [1] is 1.48; in assay [2], 1.44; in assay [3], 2.49.

B2: SLC19A1 (peptide)
chain: ACGDSVLARMLRELLDSLRRPQLRLW
For B2, the SPOT signal as a fraction of Bim BH3's signal on the same receptor and array in assay [1] was found to be 0.33; in assay [2] it was 0.28; in assay [3], 0.71.

B3: IGF2R (peptide)
chain: YFKLFRASGDDRTNGDNYLYEIQLSS
On to B3, for which the SPOT signal as a fraction of Bim BH3's signal on the same receptor and array in assay [1] came out at 0.29; in assay [2], 0.28; in assay [3], 0.25.

B4: MKI67 (peptide)
chain: SGLPGLSSVDINNFLDSINESEGIPL
Regarding B4, the SPOT signal as a fraction of Bim BH3's signal on the same receptor and array in assay [1] is 0.04; in assay [2], 0.04; in assay [3], 0.11.

B5: BCL2L11 (peptide)
chain: MRPEIWIAQELRRILDEFNAYYARRV
Take B5: the figures for the SPOT signal as a fraction of Bim BH3's signal on the same receptor and array in assay [1], in assay [2] and in assay [3] were 0.05, 0.05 and 0.1, respectively.

B6: UBA6 (peptide)
chain: ADVHGIWSRLDCDFGDEFEVLDTTGE
B6: the SPOT signal as a fraction of Bim BH3's signal on the same receptor and array was 0.03 in assay [1], 0.04 in assay [2] and 0.06 in assay [3].

B7: CCDC68 (peptide)
chain: QASREAGAAALRNVLQRLFENYQTQS
On to B7, for which the SPOT signal as a fraction of Bim BH3's signal on the same receptor and array in assay [1] was determined as 0.18; in assay [2] it was 0.2; in assay [3], 0.28.

B8: CTSL2 (peptide)
chain: SQGKHGFTMAMNAFLDMTNEEFRQMM
With B8, the SPOT signal as a fraction of Bim BH3's signal on the same receptor and array in assay [1] came to 0.06; in assay [2], 0.11; in assay [3], 0.07.

B9: IQGAP2 (peptide)
chain: ISSLDLLPYGLRYILKVLKNSIHEKF
Regarding B9, the SPOT signal as a fraction of Bim BH3's signal on the same receptor and array came out at 0.6 in assay [1], 0.66 in assay [2] and 0.86 in assay [3].

B10: TAP1 (peptide)
chain: MSILTIASAVDEFVGDGIYNNTMGHV
As for B10, the SPOT signal as a fraction of Bim BH3's signal on the same receptor and array in assay [1] worked out at 0.03; in assay [2], 0.04; in assay [3], 0.06.

B11: PCNXL2 (peptide)
chain: LLDFFMVSILDSKLGDLLHKLQFVLT
As for B11, the SPOT signal as a fraction of Bim BH3's signal on the same receptor and array in assay [1] was found to be 0.04; in assay [2], 0.06; in assay [3], 0.09.

B12: DZIP3 (peptide)
chain: NGGLLEFHKSLQEIGDKNDHWFDIDP
Take B12: the SPOT signal as a fraction of Bim BH3's signal on the same receptor and array in assay [1] was determined as 0.04; in assay [2], 0.04; in assay [3], 0.11.

B13: KIAA0664 (peptide)
chain: AEVMRQRGINMRYLGKVLELVLRSPA
In the case of B13, the figures for the SPOT signal as a fraction of Bim BH3's signal on the same receptor and array in assay [1], in assay [2] and in assay [3] were 0.52, 0.69 and 0.94, respectively.

B14: ROS1 (peptide)
chain: FGEYSGISENIILVLDDFWIPETSFI
On to B14, for which the results for the SPOT signal as a fraction of Bim BH3's signal on the same receptor and array in assay [1], in assay [2] and in assay [3] were 0.04, 0.06 and 0.07, respectively.

B15: WRAP53 (peptide)
chain: RKDAELLCWDLRQSLYPLWSLGREVT
Turning to B15, the figures for the SPOT signal as a fraction of Bim BH3's signal on the same receptor and array in assay [1], in assay [2] and in assay [3] were 0.05, 0.07 and 0.09, respectively.

B16: ATP2A3 (peptide)
chain: KGTAVAICRRLGIFGDTEDVAGKAYT
For B16, the results for the SPOT signal as a fraction of Bim BH3's signal on the same receptor and array in assay [1], in assay [2] and in assay [3] were 0.25, 0.19 and 0.23, respectively.

B17: DSN1 (peptide)
chain: RAKASSLSEELKHFLDGLETDGTLQK
As to B17, the SPOT signal as a fraction of Bim BH3's signal on the same receptor and array in assay [1] was 0.17; in assay [2], 0.18; in assay [3] it was 0.26.

B18: HEXDC (peptide)
chain: VLELHPGAQRLHIGLDEVYYLGEGEA
As to B18, the figures for the SPOT signal as a fraction of Bim BH3's signal on the same receptor and array in assay [1], in assay [2] and in assay [3] were 0.04, 0.05 and 0.06, respectively.

B19: TMEM184C (peptide)
chain: SDIRDDISEQVRHVLRTVRGHPRKKL
Consider B19, for which the SPOT signal as a fraction of Bim BH3's signal on the same receptor and array was 0.34 in assay [1], 0.31 in assay [2] and 0.88 in assay [3].

B20: CCDC57 (peptide)
chain: QAGPVSSGLADRKLGDRVQLLNLLVT
Regarding B20, the results for the SPOT signal as a fraction of Bim BH3's signal on the same receptor and array in assay [1], in assay [2] and in assay [3] were 0.07, 0.07 and 0.1, respectively.

B21: FUT8 (peptide)
chain: KKLKNLEGNEDQRHADEFLLDLGHHE
Take B21: the SPOT signal as a fraction of Bim BH3's signal on the same receptor and array in assay [1] was determined as 0.04; in assay [2], 0.04; in assay [3] it was 0.07.

B22: NBEAL2 (peptide)
chain: AELRLFLAQRLRWLLDSCPASRATCV
For the molecule B22, the SPOT signal as a fraction of Bim BH3's signal on the same receptor and array turned out to be 0.53 in assay [1], 0.72 in assay [2] and 0.52 in assay [3].

B23: MINA (peptide)
chain: TVATRRLSGFLRTLLDRLEGTKELLS
On to B23, for which the figures for the SPOT signal as a fraction of Bim BH3's signal on the same receptor and array in assay [1], in assay [2] and in assay [3] were 0.21, 0.29 and 0.31, respectively.

B24: ITGA7 (peptide)
chain: GSPDSMFGISDAVLGDLNQDGFPDIA
B24: the SPOT signal as a fraction of Bim BH3's signal on the same receptor and array in assay [1] worked out at 0.08; in assay [2] it was 0.03; in assay [3], 0.07.

B25: MKI67 (peptide)
chain: SGLPGLSSVDDNNFGDSINESEGIPL
For B25, the SPOT signal as a fraction of Bim BH3's signal on the same receptor and array in assay [1] was 0.04; in assay [2] it was 0.03; in assay [3] it was 0.08.

B26: FOXJ3 (peptide)
chain: PKKKMTLSEIYQWICDNFPYYREAGS
For B26, the SPOT signal as a fraction of Bim BH3's signal on the same receptor and array in assay [1] was 0.12; in assay [2] it was 0.22; in assay [3] it was 0.33.

B27: SYNE1 (peptide)
chain: VTLLSEVEKMDSNFGDCVQYKEIVKN
Take B27: the SPOT signal as a fraction of Bim BH3's signal on the same receptor and array in assay [1] came out at 0.05; in assay [2] it was 0.05; in assay [3], 0.09.

B28: FBXO30 (peptide)
chain: LCQLSCVSKLMRDVLGSLLQSRGMVI
As to B28, the SPOT signal as a fraction of Bim BH3's signal on the same receptor and array in assay [1] is 0.38; in assay [2] it was 0.26; in assay [3], 0.38.
